Reference: the supplement of paper PMC12855868

B1: library; numbered along this chain (parent)
chain: MAAAGGARLLRAASAVLGGPAGRWLHHAGSRAGSSGLLRNRGPGGSAEASRSLSVSARARSSSEDKITVHFINRDGETLTTKGKVGDSLLDVVVENNLDIDGFGACEGTLACSTCHLIFEDHIYEKLDAITDEENDMLDLAYGLTDRSRLGCQICLTKSMDNMTVRVPETVADARQSIDVGKTS

Variants of: B1
Experiment: scaled log2 fold change in cell abundance, elesclomol vs control (0 = silent mean, 1 = nonsense mean) (scaled log2 ratio); higher = higher viability under elesclomol (loss of FDX1 cuproptosis function)
Details: glucose 10 mM
[1] = with ABC1 FDX1 KO, elesclomol 5 nM, 14 days
[2] = with HEK293T FDX1 KO, elesclomol 40 nM, 11 days
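Further: variant abundance is its share of total variant reads in each endpoint sample, from next-generation sequencing of the integrated ORF PCR-amplified out of genomic DNA.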

Variant	scaled log2 fold change [1]	scaled log2 fold change [2]
A111N	-0.0992	0.0245
A111P	1.2	1.01
A111Q	-0.0306	-0.173
A111R	-0.24	–
A111S	0.397	-0.445
A111T	0.105	-0.0821
A111V	-0.00247	-0.469
A111W	0.0852	0.773
A111Y	-1.01	0.214
C112A	1.16	1.03
C112D	0.906	2.02
C112E	1.07	0.951
C112F	1.02	1.25
C112G	1.15	1.18
C112H	0.978	1.42
C112I	0.989	1.33
C112K	1.12	1.35
C112L	0.979	1.26
C112M	1.09	1.24
C112N	0.953	1.22
C112P	1.17	0.87
C112Q	1.01	1.1
C112R	1.08	1.29

Variant	scaled log2 fold change [1]	scaled log2 fold change [2]
C112S	0.988	0.991
C112T	1.16	0.679
C112V	1.21	1.04
C112W	1.17	0.573
C112Y	1.09	1.3
S113A	0.165	-0.251
S113C	-0.028	0.699
S113D	0.394	0.644
S113E	0.672	-0.214
S113F	0.0249	0.717
S113G	0.021	0.00491
S113H	0.269	-0.884
S113I	0.189	-0.397
S113K	0.372	0.195
S113L	0.0304	0.215
S113M	0.304	–
S113N	-0.0206	0.213
S113P	1.03	1.16
S113Q	-0.139	-0.137
S113R	0.116	0.165
S113T	0.186	0.232
S113V	0.242	-0.434
S113W	0.446	0.762

Variant	scaled log2 fold change [1]	scaled log2 fold change [2]
S113Y	0.038	0.0184
T114A	-0.0113	0.0983
T114C	0.158	0.117
T114D	0.795	0.798
T114E	0.811	1.09
T114F	0.685	0.235
T114G	-1.41	-0.22
T114H	-0.00732	0.334
T114I	1.02	1.01
T114K	0.766	0.199
T114L	0.463	0.0445
T114M	0.114	0.455
T114N	0.0748	1.03
T114P	1.01	0.956
T114Q	-0.112	0.0599
T114R	0.517	0.411
T114S	-0.416	0.997
T114V	0.906	0.208
T114W	1.03	0.814
T114Y	0.838	0.412
C115A	1.07	1.02
C115D	1.16	0.979
C115E	1.27	0.99

Variant	scaled log2 fold change [1]	scaled log2 fold change [2]
C115F	1	1.25
C115G	1.06	1.1
C115H	0.953	1.29
C115I	1.04	0.907
C115K	1.02	0.763
C115L	1.09	1.15
C115M	1.03	1.19
C115N	0.976	1.34
C115P	1.1	1.51
C115Q	0.93	1.07
C115R	1.02	1.68
C115S	1.09	1.13
C115T	1.13	0.783
C115V	1.07	1.37
C115W	1.1	1.36
C115Y	1.1	0.829
H116A	0.129	0.404
H116C	0.0577	0.973
H116D	0.16	-0.115
H116E	-0.124	0.106
H116F	0.69	0.87
H116G	0.0557	-0.405
H116I	-1.23	0.162

Variant	scaled log2 fold change [1]	scaled log2 fold change [2]
H116K	0.464	-0.0313
H116L	-0.55	-0.291
H116M	-1.26	0.245
H116N	-0.0564	-0.554
H116P	0.152	0.891
H116Q	-0.185	0.198
H116R	-0.042	0.647
H116S	-0.0363	0.435
H116T	0.317	-0.824
H116V	0.0823	-0.296
H116W	-0.0982	0.125
H116Y	0.484	1.02
L117A	0.00712	0.115
L117C	0.0758	0.451
L117D	1.19	0.855
L117E	1.05	0.745
L117F	0.176	0.206
L117G	0.483	0.224
L117H	1.03	1.35
L117I	-0.11	-0.196
L117K	1.07	1.03
L117M	0.167	-0.247
